Experimental findings from patent US10703784B2, “Antigens and epitopes derived from Mycobacterium tuberculosis” (priority 2011, dated 2020) are described below.

B1: Rv0293c: MTB protein, novel CD4 T cell antigen; Conserved hypotheticals, Island 1 (protein, listed as Mycobacterium tuberculosis)
chain: MSGTFTADAIGPPVPIPDVPGADAGAEGLPSRSVLSARQRILVESSAIADVALRTAVASVLSATVTPAVVANALRHVNEGSERSNLNFYAELAAAHDPAKSFPAPTELPKVTSRPASPLTEWVARGTVDNIAFASGFRAINPTMRQRWSALTANNIVHAQHWRHRDGPRPTLCVIHGFMGSSYLLNGLFFSLPWYYRSGYDVLLYTLPFHGQRAEKFSPFSGFGYFTSGLSGFAEAMAQAVYDFRSIVDYLRHIGVDRIALTGISLGGYTSALLASVESRLEAVIPNCPVVMPAKLFDEWFPANKLVKLGLRLTNISRDELIAGLAYHGPLNYRPLLPKDRRMIITGLGDRMAPPEHAVTLWKQWDRCALHWFPGSHLLHVSQLDYLRRMTVFLQGLMFD
B2: Rv0294: MTB protein, novel CD4 T cell antigen; Intermediary metabolism and respiration, Island 1 (protein, listed as Mycobacterium tuberculosis)
chain: MWDPDVYLAFSGHRNRPFYELVSRVGLERARRVVDLGCGPGHLTRYLARRWPGAVIEALDSSPEMVAAAAERGIDATTGDLRDWKPKPDTDVVVSNAALHWVPEHSDLLVRWVDELAPGSWIAVQIPGNFETPSHAAVRALARREPYAKLMRDIPFRVGAVVQSPAYYAELLMDTGCKVDVWETTYLHQLTGEHPVLDWITGSALVPVRERLSDESWQQFRQELIPLLNDAYPPRADGSTIFPFRRLFMVAEVGGARRSGG
B3: Rv0292: MTB protein, novel CD4 T cell antigen; Cell wall and cell processes, Island 1, Esx-3 (protein, listed as Mycobacterium tuberculosis)
chain: MNPIPSWPGRGRVTLVLLAVVPVALAYPWQSTRDYVLLGVAAAVVIGLFGFWRGLYFTTIARRGLAILRRRRRIAEPATCTRTTVLVWVGPPASDTNVLPLTLIARYLDRYGIRADTIRITSRVTASGDCRTWVGLTVVADDNLAALQARSARIPLQETAQVAARRLADHLREIGWEAGTAAPDEIPALVAADSRETWRGMRHTDSDYVAAYRVSANAELPDTLPAIRSRPAQETWIALEIAYAAGSSTRYTVAAACALRTDWRPGGTAPVAGLLPQHGNHVPALTALDPRSTRRLDGHTDAPADLLTRLHWPTPTAGAHRAPLTNAVSRT
B4: Rv3876: MTB protein, novel CD4 T cell antigen; Cell wall and cell processes, Island 3, Esx-1 (protein, listed as Mycobacterium tuberculosis)
chain: MAADYDKLFRPHEGMEAPDDMAAQPFFDPSASFPPAPASANLPKPNGQTPPPTSDDLSERFVSAPPPPPPPPPPPPPTPMPIAAGEPPSPEPAASKPPTPPMPIAGPEPAPPKPPTPPMPIAGPEPAPPKPPTPPMPIAGPAPTPTESQLAPPRPPTPQTPTGAPQQPESPAPHVPSHGPHQPRRTAPAPPWAKMPIGEPPPAPSRPSASPAEPPTRPAPQHSRRARRGHRYRTDTERNVGKVATGPSIQARLRAEEASGAQLAPGTEPSPAPLGQPRSYLAPPTRPAPTEPPPSPSPQRNSGRRAERRVHPDLAAQHAAAQPDSITAATTGGRRRKRAAPDLDATQKSLRPAAKGPKVKKVKPQKPKATKPPKVVSQRGWRHWVHALTRINLGLSPDEKYELDLHARVRRNPRGSYQIAVVGLKGGAGKTTLTAALGSTLAQVRADRILALDADPGAGNLADRVGRQSGATIADVLAEKELSHYNDIRAHTSVNAVNLEVLPAPEYSSAQRALSDADWHFIADPASRFYNLVLADCGAGFFDPLTRGVLSTVSGVVVVASVSIDGAQQASVALDWLRNNGYQDLASRACVVINHIMPGEPNVAVKDLVRHFEQQVQPGRVVVMPWDRHIAAGTEISLDLLDPIYKRKVLELAAALSDDFERAGRR
B5: Rv2874: MTB protein, novel CD4 T cell antigen; Intermediary metabolism and respiration (protein, listed as Mycobacterium tuberculosis)
chain: MVESRRAAAAASAYASRCGIAPATSQRSLATPPTISVPSGEGRCRCHVARGAGRDPRRRLRRRRWCGRCGYHSHLTGGEFDVNRLCQQRSRERSCQLVAVPADPRPKRQRITDVLTLALVGFLGGLITGISPCILPVLPVIFFSGAQSVDAAQVAKPEGAVAVRRKRALSATLRPYRVIGGLVLSFGMVTLLGSALLSVLHLPQDAIRWAALVALVAIGAGLIFPRFEQLLEKPFSRIPQKQIVTRSNGFGLGLALGVLYVPCAGPILAAIVVAGATATIGLGTVVLTATFALGAALPLLFFALAGQRIAERVGAFRRRQREIRIATGSVTILLAVALVFDLPAALQRAIPDYTASLQQQISTGTEIREQLNLGGIVNAQNAQLSNCSDGAAQLESCGTAPDLKGITGWLNTPGNKPIDLKSLRGKVVLIDFWAYSCINCQRAIPHVVGWYQAYKDSGLAVIGVHTPEYAFEKVPGNVAKGAANLGISYPIALDNNYATWTNYRNRYWPAEYLIDATGTVRHIKFGEGDYNVTETLVRQLLNDAKPGVKLPQPSSTTTPDLTPRAALTPETYFGVGKVVNYGGGGAYDEGSAVFDYPPSLAANSFALRGRWALDYQGATSDGNDAAIKLNYHAKDVYIVVGGTGTLTVVRDGKPATLPISGPPTTHQVVAGYRLASETLEVRPSKGLQVFSFTYG
B6: Rv3125c: MTB protein, novel CD4 T cell antigen; PE/PPE (protein, listed as Mycobacterium tuberculosis)
chain: MVLGFSWLPPEINSARMFAGAGSGPLFAAASAWEGLAADLWASASSFESVLAALTTGPWTGPASMSMAAAASPYVGWLSTVASQAQLAAIQARAAATAFEAALAATVHPTAVTANRVSLASLIAANVLGQNTPAIAATEFDYLEMWAQDVAAMVGYHAGAKSVAATLAPFSLPPVSLAGLAAQVGTQVAGMATTASAAVTPVVEGAMASVPTVMSGMQSLVSQLPLQHASMLFLPVRILTSPITTLASMARESATRLGPPAGGLAAANTPNPSGAAIPAFKPLGGRELGAGMSAGLGQAQLVGSMSVPPTWQGSIPISMASSAMSGLGVPPNPVALTQAAGAAGGGMPMMLMPMSISGAGAGMPGGLMDRDGAGWHVTQARLTVIPRTGVG
B7: Rv3135: MTB protein, novel CD4 T cell antigen; PE/PPE (protein, listed as Mycobacterium tuberculosis)
chain: B6 chain
B8: Rv1791: MTB protein, novel CD4 T cell antigen; PE/PPE (protein, listed as Mycobacterium tuberculosis)
chain: MSFVTTQPEALAAAAANLQGIGTTMNAQNAAAAAPTTGVVPAAADEVSALTAAQFAAHAQMYQTVSAQAAAIHEMFVNTLVASSGSYAATEAANAAAAG
B9: Rv0124: MTB protein, novel CD4 T cell antigen; PE/PPE (protein, listed as Mycobacterium tuberculosis)
chain: MSFVSVAPEIVVAAATDLAGIGSAISAANAAAAAPTTAVLAAGADEVSAAIAALSGHAQAYQALSAQAAAFHQQFVQTLAGGAGAYAAAEAQVEQQLLAAINAPTQALLGRPLIGNGADGAPGTGQAGGAGGILYGNGGNGGSGAAGQAGGAGGPAGLIGHGGSGGAGGSGAAGGAGGHGGWLWGNGGVGGSGGAGVGAGVAGGHGGAGGAAGLWGAGGGGGNGGNGADANIVSGGDGGLGGAGGGGGWLYGDGGAGGHGGQGAIGLGGGAGGDGGQGGAGRGLWGTGGAGGHGGQGGGTGGPPLPGQAGMGAAGGAGGLIGNGGAGGDGGVGASGGVAGVGGAGGNAMLIGHGGAGGAGGDSSFANGAAGGAGGAGGHLFGNGGSGGHGGAVTAGNTGIGGAGGVGGDARLIGHGGAGGAGGDRAGALVGRDGGPGGNGGAGGQLYGNGGDGAPGTGGTLQAAVSGLVTALFGAPGQPGDTGQPG
B10: Rv0291: MTB protein, novel CD4 T cell antigen; Intermediary metabolism and respiration, Island 1 (protein, listed as Mycobacterium tuberculosis)
chain: MIRAAFACLAATVVVAGWWTPPAWAIGPPVVDAAAQPPSGDPGPVAPMEQRGACSVSGVIPGTDAGVPTPSQTMLNLPAAWQFSRGEGQLVAIIDTGVQPGPRLPNVDAGGDFVESTDGLTDCDGHGTLVAGIVAGQPGNDGFSGVAPAARLLSIRAMSTKFSPRTSGGDPQLAQATLDVAVLAGAIVHAADLGAKVINVSTITCLPADRMVDQAALGAAIRYAAVDKDAVIVAAAGNTGASGSVSASCDSNPLTDLSRPDDPRNWAGVTSVSIPSWWQPYVLSVASLTSAGQPSKFSMPGPWVGIAAPGENIASVSNSGDGALANGLPDAHQKLVALSGTSYAAGYVSGVAALVRSRYPGLNATEVVRRLTATAHRGARESSNIVGAGNLDAVAALTWQLPAEPGGGAAPAKPVADPPVPAPKDTTPRNVAFAGAAALSVLVGLTAATVAIARRRREPTE

One test concerns PBMCs from LTBI donors (IFN-γ production). Type of test: cell-based, human. The note with it: fraction of 28 LTBI donors responding to epitopes of the antigen, ex vivo IFN-γ ELISPOT.
B1 came in with a Resp. freq. of 14%.
As to B2, the Resp. freq. came to 18%.
The same measure, in the same setting: next, B3: 14%; B4: 18%.
On the same count and under the same terms, next, B5: 18%; B6: 21%; B7: 18%.
Molecule B8 showed a Resp. freq. of 25%.
The same measure, in the same setting: then B9, with 14%.
Still for that read-out and setting: next, B10: 14%.

The test is the same for the next values; noted with them: total spot-forming cells, LTBI donors, ex vivo IFN-γ ELISPOT.
B1: the “Total SFC” value came to 1073 SFC.
Same read-out and setting: then B2, with 1368 SFC.
Same read-out and setting: next, B3: 708 SFC; B4: 1323 SFC; B5: 798 SFC.
The same measure, in the same setting: then B6, with 125 SFC; and B7, with 317 SFC.
As to B8, the “Total SFC” value amounted to 355 SFC.
Regarding B9, the “Total SFC” value was determined as 177 SFC.
Same read-out and setting: next, B10: 1153 SFC.
